Measured values published in publication PMC6105031, “The crystal structure of KSHV ORF57 reveals dimeric active sites important for protein stability and function” (PLoS Pathogens, 2018).

B1: FLAG-tagged full-length ORF57 [Kaposi's sarcoma-associated herpesvirus (KSHV, HHV8)] / itself (parent complex)
chain: MVQAMIDMDIMKGILEDSVSSSEFDESRDDETDAPTLEDEQLSEPAEPPADERIRGTQSAQGIPPPLGRIPKKSQGRSQLRSEIQFCSPLSRPRSPSPVNRYGKKIKFGTAGQNTRPPPEKRPRRRPRDRLQYGRTTRGGQCRAAPKRATRRPQVNCQRQDDDVRQGVSDAVKKLRLPASMIIDGESPRFDDSIIPRHHGACFNVFIPAPPSHVPEVFTDRDITALIRAGGKDDELINKKISAKKIDHLHRQMLSFVTSRHNQAYWVSCRRETAAAGGLQTLGAFVEEQMTWAQTVVRHGGWFDEKDIDIILDTAIFVCNAFVTRFRLLHLSCVFDKQSELALIKQVAYLVAMGNRLVEACNLLGEVKLNFRGGLLLAFVLTIPGMQSRRSISARGQELFRTLLEYYRPGDVMGLLNVIVMEHHSLCRNSECAAATRAAMGSAKFNKGLFFYPLS

Variants of: B1
Assay: in vitro crosslinking assay (DSS) with anti-FLAG Western blot; HEK293 cells, 0.5 μg plasmid for WT and 2 μg for mutant, DSS 50 μM for 30 min; lanes 14 (WT) and 16 (mutant); parent: 0.15

Variant | screen value
chain 1 R270A, chain 1 R271A | 0.07
